Experiment: yeast display, Sf9 membrane polyspecificity reagent, FACS + sequencing; frameworks hold sequencing errors
Method in brief: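 Nanobodies from a synthetic yeast display library (Saccharomyces cerevisiae BJ5465), induced 36–48 hours with galactose, were stained 1 hour at 4 °C with 10% biotinylated, detergent-solubilized Sf9 membrane reagent, enriched on streptavidin microbeads, then FACS-sorted. Anti-HA (expression) and streptavidin (reagent binding) fluorescence set low and high (top ~1%) gates. Polyreactivity labels come from the gate of origin. Genes were colony-PCR amplified, MiSeq 2 × 250 sequenced and filtered by CDR length.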

Sequence	polyreactivity (PSR sort gate)
QVQLVESGGGLVQAGGSLRLSCADSGFTFYRYARGWYRQAPGKERELVADITSGGSTNYADSVKGRFTISRDNAKNTVYLQMNSLKPEDTAVYYCNADRWYGSVYRYGYWGQGTQVTVSS	high polyreactivity
QVQLVESGGGLVQAGGSLRLSCAASGIIFAYYAMGGYRHAPGKERELVAAISRSGGITYYADSVKGRFSISRDNAKNTVYLQMNSLKPEDTAVYDCARFSSRPYDYWGQGTQVTVSS	high polyreactivity
QVHLVESGGGLVQAGGSLRLSCDASGSIFNTYAMGWYRQAPGKESELVATITSGDRTYYADSVNGRFTISRDNAKNSVYLQMNSLNPEDTAVYYCAKRHWFQYRRPDLGRFDYWGQGTQVTVSS	high polyreactivity
QDQLVESGGGLVQAGGSLRLSCAASGRIFLYNAMGWYRQAPGKERELVAAIDGGGTTYADSVKGRFTISRDNAKNTVYLQMNSLKPEDTAVYYCAADWYYQYSIYRYGYWGQGTQVTVSS	low polyreactivity
QVQLVESGGGLVQAGGSLRLSCAASGSIFYYNAMGWYRQAPGKERELVAAISRSGGSTYYADSVKGRFTISRDNAKNTVYLQMNSLKPEDTAVYYCAARPNFTPYEYGYWGQGTQVTVSS	low polyreactivity
QVQLVESGGGLVQAGGSLLLSCAASGRTFAPYAMGWYRQAPGKERELVAAISSGGGNTYYADSVKGRFTISRDNAKNTVYLQMNSMKPEDTAVYYCAKPRARQDFDYWGQGTKVTVSS	high polyreactivity
QVQLVESGGGLVQAGGSLRLSCAASGNTYLYYGMGWYRQSPGKERDLVAAITQSGGTTYYADSVKGRFTISRDNAKNTVYLQLNSLKQEDTAVYYCAATRYYYYWYVYDDRGDYWGQGTQVTVSS	low polyreactivity
QVQLVESGGGLVQAGGSLRLICAASGFIFPHNTMGWYRQAPGKERELVAAISSGGSTNYADSVKGRFTLSRDNAKNTVYLQMNSLKPEDTAVYYCATVSVRWPSNDHVRYDYWGQGTQVTVSS	low polyreactivity
QVQLVESGGGLVQAGGSLRVSCAASGRTFRGYSMGWSRPAPGKERELVAAISWRGGTTYYADSVKGRFTISRDNAKNTVYLQMNSLKPEDTAVYYCAARRYRISKTSGYWGQGTQVTVSS	high polyreactivity
QVQLVESGGGLVQAGGSLRLSCAASGSIFAKYAMGWYRQAPGKEREFVAAIRASGGRTYYADSVKGRFTISRDNAKNTVYLQMNSLKPEDTAVYYCAAHLYSSRSDYDGPRSRRNYWGQGTQVTVSS	high polyreactivity
QVKIVESGGGLVQAGGSLRLSCAASGGIFNWYAMGWYRPAPGKERELVAAITQSGGSTYYADSVKGRFTISRDNAKNTEYLQMNSLKPEDTAVYYCNKDQEKFWTAFNTIGRAREYDYWGQGTQVTVSS	low polyreactivity
QVQLVESGGGLVQAGGTLRLSCAASGGIFVANAMGWYRQAPGKERELVAAISRSGGSTYYADSVKGRFTISRDNAKNTVYLQMNSLKPEDTAVYYCAAKSRRQYTVGLTSDYWGQGTQVTVSS	high polyreactivity
QVQLVESGGGLVQAGGSLRLSCAAYGRTFSHYAMGWYRQAPGKERELVAGITSGGRTYYADSVKGRFTISRDNAKNTVYLQMNSLKPEDTEVYYCAIRRYTAIWYGYWGQGTQETVSS	high polyreactivity
QDQLVESGGGLVQAGGSLRLSCAASGLTFEKYAMGWYRQAPGKERELVAAISQDGGSTYYADSVKGRFTISRDNAKNTVYLQMNSLKPEDTAVYYCAAEDPDSWLPWDLFDYWGQGTQVTVSS	low polyreactivity
QVQLVESGGGLVQAGGSLRLSCPASGLNFTSYAMGWYRQAPGKERELVAAITWSGSSTYYADSVKGRFTISRDNAKNTVYLQMNSLKPEDTAVYYCAAYRYGRIYRQYAYDYWGQGTQVTVSS	high polyreactivity
QVQLVESGGGLVQAGGSLRLSCAASGRILRSYAMGWYRPAPGKERELVAAIRWRGGSTYYADSVKGRFTISRDNAKNTVYLQMNSLKPEDTAVYYCAARSYYRQSAGDYWGQGTQVTVSS	high polyreactivity

Sequence	polyreactivity (PSR sort gate)
QVQLVESGGGLVQARGSLRLSCAASGRIFYFYAMGWYRQAPGKERELVAAITESTSSTYYADSVKGRFTISRDNAKNTVYLQMNSLKPEDTAVYYCAARVSQWLPYGGSSRYYYWGQGTQVTVSS	high polyreactivity
QVQLVESVGGLVQAGGSLRLSCAAYGRTFAPNAMLWYRQAPGKESELVAAISWSGTSTYYADSVKGRFTISRDNSKNTVYLQMYSLKPEDTAFYDCAADMEGRVGSPWTYDYWGQGTQVTVSS	low polyreactivity
QVQLVESGGGLVQAGGSLRLSCAAYGRTFRTNAMGWYRQAPGKERELVAAISTGGGITNYADSVKGRFTISRDNAKNTVYLQMNSLKPEDTAVYYCNADIYTWFQIGGYQYDYWGQGTQVTVSS	low polyreactivity
QVQLVESGGGLVQAGGSLRLSCAASGRTFVGNVMGWYRQAPGKERELVAAINRDASTNYADSVKGRFTISRDNAKNTVYLQMNSLKPEDTAVYYCATRRGFFDIFYGGYDYWGQGTQVTVSS	low polyreactivity
QVQLVESGGGLVQAGGSLRLSCAASGITFGSYAMGWYRQAPGKERELVAAITWRGGSTFYADSVKGRFTISRDNAKNTVYLQMNSLKPDDTAVYYCAATLTKYLPRYYWGQGTQVTVSS	low polyreactivity
QVQLVESGGGLVQAGGSLRLSCAASGSIFARNAMGWYRQAPGKERELVASITSNSGNTYYADSVKGRFTISRDNAKNTVYLQMNSLKPEDTAVYYCAADQLSDEYDYWGQGTQVTVSS	high polyreactivity
QVQLVESGGGLVQAGGSLRLSCAASGSIFEPNAMGWYRQAPGKERELVAAISWNDGDTYYADSVKGRFTISRDNAKNTVYLQMNSLKPVDTAVYYCAAETGYAFDYWGQGTQVTVSS	low polyreactivity
QVQLVESGGGLVQAGGSLRLSCAASGYIFYTYAMGWYRQAPGKERELVASIDSGGSTNYADSVKGRFTISRDNAKNTVYLQMNSLKPEDTAVYYCAADVIVRVYYYYYVLMDYWGHGTQVTVSS	low polyreactivity
QVQLVESGGGLVQAGGSLRLSCPASGFTFYGYAMGWYRQAPGKERELVAAIRYSGGSTYYADSVKGRFTISRDNAKNTVYLQMNSLKPEDTAVYYCNKRLIYYRGTYYSRRFDYWGQGTQVTVSS	high polyreactivity
QVQLVESGGGLVQAGGSLRLSCAASGRTLGIYAMGWYRQAPGTERELVAAITLSGSDTYYADSVKGRFTISRDNAKNTVDLQMNSLKPEDTAVYYCAAKTYGGYGKYGYWGQGTQVTVSS	low polyreactivity
QFHLVESCGGLVQAGGSLRLSCAASGIIFSTYFMGWYIQAPGKERELVAAISSRGFSTYYADSVKGRFTISRDNAKKTVYLQMNSLIPEDTAVYYCAARYYYSRSRLYYYWGQGTQVTVSS	high polyreactivity
QVQLVESGGGLVQAGGSLRLSCAASGFTFTWYAMGWYRQAPGKERELVATISRSGGRTYYADSVKGRFTISRDNAKNTVYLQLNSLKPEDTAVYYCAADTRNYPRYDYWGQGTQVTVSS	high polyreactivity
QVQLVESGGGLVQAGGSLRLSCAASGSNFKLYSMGWYRQAPGKERELVATIRWSGGSTYYADSVKGRFTISRDNAKNTVYLQMNSLKPEDTAVYYCAARRVRPNGYTSSPLDYWGQGTQVTVSS	high polyreactivity
QVQLVESGGGLVQAGGSLRLSCAASGRTFRPYAMGWYRQAPGKERELVAAIRGSTGSTYADSVKGRFTISRDNAKNTVYLQMNSLKPEDTAVYSCATYRYYSGLGGGYWGQGTQVTVSS	high polyreactivity
QVQLVESGGGLVQPGGSLRLSCAASGFIFYWYAMGWYRQAPGKERELVAAISYDTGSTYYADSVKGRFTISRDNAKITVYFQINSLKPEDTAVYYCAADASWRVYTGYYWGQGTQVTVSS	high polyreactivity

— the nanobody polyreactivity screen of Harvey et al. (2022)
